B1: ADI-11830 Fab (Fab, V domains shown)
VH: EVQLVESGGGLVQPGGSLRLSCAASGFTFSSYWMSWVRQAPGKGLEWVANINTDGSEVYYVDSVKGRFTISRDNAKNSLYLQMNSLRAEDTAVYYCARDVGPGIAYQGHFDYWGQGTLVTVSS
VL: DIQMTQSPSSLSASVGDRVTITCRASQVIYSYLNWYQQKPGKAPKLLIYAASSLKSGVPSRFSGSGSGTDFTLTISSLQPEDFATYYCQQVYDTPLTFGGGTKVEIK
B2: ADI-11826 Fab (Fab, V domains shown)
VH: EVQLVESGGGLVQPGGSLRLSCAASGFTFPGYWMSWVRQAPGKGLEWVANINQDGSEVYYVDSVKGRFTISRDNAKNSLYLQMNSLRAEDTAVYYCAREANYYGNVGDDYWGQGTLVTVSS
VL: B1 VL with V28S, S31N, L54T, K55Q, V91A, Y92F, D93H, T94V, L96I
B3: ADI-11828 Fab (Fab, V domains shown)
VH: B1 VH with T53Q
VL: B1 VL with V28S, S31Y, L54R, K55Q
B4: ADI-11825 Fab (Fab, V domains shown)
VH: B2 VH with P30G, V58E
VL: B1 VL with V28S, S31N, S53N, K55H, V91A, Y92F, D93H, T94V, L96I
B5: ADI-10161 Fab (Fab, V domains shown)
VH: EVQLVESGGGLVQPGGSLRLSCAASGFTFSSYWMSWVRQAPGKGLEWVANINQDGSEKYYVDSVKGRFTISRDNAKNSLYLQMNSLRAEDTAVYYCAREGGDSWYHAFDIWGQGTMVTVSS
VL: DIQMTQSPSSVSASVGDRVTITCRASQGISSWLAWYQQKPGKAPKLLIYAASNLQSGVPSRFSGSGSGTDFTLTISSLQPEDFATYYCQQKLSLPLTFGGGTKVEIK
B6: ADI-10157 Fab (Fab, V domains shown)
VH: QVQLQESGPGLVKPSETLSLTCTVSGGSISSYYWSWIRQPPGKGLEWIGSIYYSGSTNYNPSLKSRVTISVDTSKNQFSLKLSSVTAADTAVYYCARVGGVYSTIETYGMDVWGQGTTVTVSS
VL: EIVMTQSPATLSVSPGERATLSCRASQSVSSNLAWYQQKPGQAPRLLIYGASTRATGIPARFSGSGSGTEFTLTISSLQSEDFAVYYCQQYTVYPPTFGGGTKVEIK
B7: ADI-10159 Fab (Fab, V domains shown)
VH: EVQLVESGGGLVQPGGSLRLSCAASGFTFSSYGMSWVRQAPGKGLEWVANIKQDGSEKYYVDSVKGRFTISRDNAKNSLYLQMNSLRAEDTAVYYCAREGGPYYDSSGYFVYYGMDVWGQGTTVTVSS
VL: DIQMTQSPSTLSASVGDRVTITCRASQSISSWLAWYQQKPGKAPKLLIYDASSLESGVPSRFSGSGSGTEFTLTISSLQPDDFATYYCQQYESFPTFGGGTKVEIK
B8: ADI-11819 Fab (Fab, V domains shown)
VH: EVQLVESGGGLVKPGGSLRLSCAASGFTFSSYAMSWVRQAPGKGLEWVSSISSSSEGIYYADSVKGRFTISRDNAKNSLYLQMNSLRAEDTAVYYCAREGGPYYDSSGYFVYYGMDVWGQGTTVTVSS
VL: B7 VL with Q27N, D50E, L54T, E55K, E92D, S93D, F94L
B9: ADI-11776 Fab (Fab, V domains shown)
VH: EVQLLESGGGLVQPGGSLRLSCAASGFTFSKYTMSWVRQAPGKGLEWVSAIVGSGESTYFADSVKGRFTISRDNSKNTLYLQMNSLRAEDTAVYYCAREGGPYYDSSGYFVYYGMDVWGQGTTVTVSS
VL: B7 VL with D50K, E92D, S93D, F94L
B10: ADI-10177 Fab (Fab, V domains shown)
VH: EVQLVESGGGLVQPGGSLRLSCAASGFTFSSYWMSWVRQAPGKGLEWVANIKQDGSEKYYVDSVKGRFTISRDNAKNSLYLQMNSLRAEDTAVYYCARPLNAGELDVWGQGTMVTVSS
VL: DIQMTQSPSTLSASVGDRVTITCRASQSISSWLAWYQQKPGKAPKLLIYEASSLESGVPSRFSGSGSGTEFTLTISSLQPDDFATYYCQQLESYPLTFGGGTKVEIK
B11: ADI-11815 Fab (Fab, V domains shown)
VH: QVQLVQSGAEVKKPGASVKVSCKASGYTFGTYYMHWVRQAPGQGLEWMGIINPSRGSTVYAQKFQGRVTMTRDTSTSTVYMELSSLRSEDTAVYYCARGAGYDDEDMDVWGKGTTVTVSS
VL: B5 VL with S30D, N53S, K91A, L92H, L94Y
B12: ADI-11807 Fab (Fab, V domains shown)
VH: B10 VH with S30G, N50T, Y59S
VL: DIQMTQSPSTLSASVGDRVTITCRASQSISSWLAWYQQKPGKAPKLLIYEASSLESGVPSRFSGSGSGTEFTLTISSLQPDDFATYYCQQSQSYPPITFGGGTKVEIK
B13: ADI-11812 Fab (Fab, V domains shown)
VH: B11 VH with G30E, T31I, R55S
VL: B5 VL with S30D, N53S, K91A, L92H, L94Y
B14: ADI-11809 Fab (Fab, V domains shown)
VH: B10 VH with S30P, N50T, Q53R, Y59G
VL: B12 VL
B15: ADI-11835 Fab (Fab, V domains shown)
VH: QLQLQESGPGLVKPSETLSLTCTVSGGSISSTDYYWGWIRQPPGKGLEWIGSIGYSGTYYNPSLKSRVTISVDTSKNQFSLKLSSVTAADTAVYYCARETAHDVHGMDVWGQGTTVTVSS
VL: EIVLTQSPATLSLSPGERATLSCRASHSVYSYLAWYQQKPGQAPRLLIYDASNRATGIPARFSGSGSGTDFTLTISSLEPEDFAVYYCQQYDNLPTFGGGTKVEIK
B16: ADI-11839 Fab (Fab, V domains shown)
VH: QVQLVQSGAEVKKPGASVKVSCKASGYTFSNYYMHWVRQAPGQGLEWMGWINPFSGGTRYAQKFQGRVTMTRDTSTSTVYMELSSLRSEDTAVYYCARDVGSSAYYYMDVWGKGTTVTVSS
VL: B5 VL with R24E, Q27K, N53D, K91A, L92F, S93L, L94F, L96P

Numbering of substitutions follows the chain as printed.

The target of the first experiment is human CD33 R69G (human) (UniProt P20138). In words: SPR, Fab captured, 37C.
human CD33 R69G (human), sequence (P20138 18-259 R69G): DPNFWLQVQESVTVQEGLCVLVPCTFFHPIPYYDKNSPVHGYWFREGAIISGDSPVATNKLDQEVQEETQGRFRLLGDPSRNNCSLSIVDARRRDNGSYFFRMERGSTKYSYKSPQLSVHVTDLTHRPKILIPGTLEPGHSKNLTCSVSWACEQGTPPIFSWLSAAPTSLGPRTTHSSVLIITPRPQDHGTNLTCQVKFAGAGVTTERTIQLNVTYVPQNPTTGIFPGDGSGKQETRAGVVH
On to B1, for which the Kd (in general, the constant that tells how readily two partners part at equilibrium) was 2.94 nM; the koff (usually a measure of how fast the partners let go of each other) amounted to 0.00663 s⁻¹; the kon – broadly, the second-order rate constant of association – turned out to be 2.27e+06 M⁻¹ s⁻¹.
In the same order, the values of B2 are 3.83 nM, 0.00723 s⁻¹ and 1.89e+06 M⁻¹ s⁻¹.
In the same order, the values of B3 are 6.03 nM, 0.007 s⁻¹ and 1.16e+06 M⁻¹ s⁻¹.
The corresponding values for B4 are 3.74 nM, 0.00695 s⁻¹ and 1.86e+06 M⁻¹ s⁻¹.
The molecule B5 displayed a Kd of 48.9 nM, a koff of 0.0307 s⁻¹ and a kon of 629000 M⁻¹ s⁻¹.
In the same order, the values of B6 are 17.8 nM, 0.0287 s⁻¹ and 1.56e+06 M⁻¹ s⁻¹.
Molecule B7 registered a Kd of 5.68 nM, a koff of 0.00243 s⁻¹ and a kon of 426000 M⁻¹ s⁻¹.
As to B8, the Kd came to 0.09 nM, the koff is 0.000244 s⁻¹ and the kon came out at 2.78e+06 M⁻¹ s⁻¹.
The corresponding values for B9 are 0.22 nM, 0.000426 s⁻¹ and 1.98e+06 M⁻¹ s⁻¹.
In turn, B10 gave a kon of 230000 M⁻¹ s⁻¹.
Turning to B11, the Kd was found to be 4.34 nM, the koff turned out to be 0.0013 s⁻¹ and the kon worked out at 300000 M⁻¹ s⁻¹.
Regarding B12, the Kd turned out to be 0.43 nM, the koff was 0.000259 s⁻¹ and the kon was 597000 M⁻¹ s⁻¹.
The corresponding values for B13 are 6.74 nM, 0.00228 s⁻¹ and 338000 M⁻¹ s⁻¹.
B14 registered a Kd of 0.22 nM, a koff of 0.000179 s⁻¹ and a kon of 815000 M⁻¹ s⁻¹.
In the same order, the values of B15 are 0.67 nM, 0.00205 s⁻¹ and 3.07e+06 M⁻¹ s⁻¹.

In the next experiment the target is human CD33 S128N (human) (UniProt P20138). In words: SPR, Fab captured, 37C. Background: SPR reads the build-up and loss of mass on a sensor chip optically.
human CD33 S128N (human), sequence (P20138 18-259 S128N): as the sequence (P20138 18-259 R69G) above, with G52R, S111N counted along it
As for B2, the Kd was determined as 2.65 nM, the koff turned out to be 0.00574 s⁻¹ and the kon is 2.17e+06 M⁻¹ s⁻¹.
The corresponding values for B3 are 5.41 nM, 0.00742 s⁻¹ and 1.37e+06 M⁻¹ s⁻¹.
The molecule B4 came in with a Kd of 3.09 nM, a koff of 0.00649 s⁻¹ and a kon of 2.1e+06 M⁻¹ s⁻¹.
B5 showed a Kd of 63.6 nM, a koff of 0.0385 s⁻¹ and a kon of 605000 M⁻¹ s⁻¹.
The corresponding values for B16 are 29.5 nM, 0.0284 s⁻¹ and 963000 M⁻¹ s⁻¹.
The corresponding values for B6 are 163 nM, 0.00924 s⁻¹ and 56500 M⁻¹ s⁻¹.
In the same order, the values of B13 are 2.01 nM, 0.00112 s⁻¹ and 556000 M⁻¹ s⁻¹.

These data come from patent US20220380459A1.
